# T1: OsMADS45 aa 50-198 (Oryza sativa, UniProt P0C5B0 50-198)
# T1 construct: bait, Gal4 DBD fusion; also called PN20231; O. sativa MADS box protein MADS45
# T1 sequence: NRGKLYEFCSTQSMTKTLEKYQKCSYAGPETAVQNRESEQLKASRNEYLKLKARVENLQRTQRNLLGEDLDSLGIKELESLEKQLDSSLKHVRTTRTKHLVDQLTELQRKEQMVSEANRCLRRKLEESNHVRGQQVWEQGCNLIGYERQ
# T2: OsHOS59 aa 1-100 (Oryza sativa, UniProt Q94LW4 113-212)
# T2 construct: bait, Gal4 DBD fusion; also called PN20559; O. sativa Homeobox Protein HOS59, Fragment
# T2 sequence: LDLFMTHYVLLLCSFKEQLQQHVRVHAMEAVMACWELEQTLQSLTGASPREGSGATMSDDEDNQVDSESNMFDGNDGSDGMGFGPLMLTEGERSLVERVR
# Target: T1, OsMADS45 aa 50-198
# Assay: Y2H; output trait library
# Procedure, shortened: (§1)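 Myriad Genetics Inc. (Salt Lake City, Utah) supplied the automated, high-throughput yeast two-hybrid assay used to detect protein-protein interactions. A bait clone encoding a defined amino-acid fragment of a rice protein was screened against a rice prey library, either the input trait or the output trait library. To identify the interacting proteins, prey clones were retrieved and their encoding sequences were compared against databases by BLAST.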
row,Binder,binding result
1,"OsMADS18 aa 82-154 (other, prey, AD fusion; also called PN20912) EPNTEDQENWGDEYGILKSKLDALQKSQRQLLGEQLDTLTTKELQQLEHQLEYSLKHIRSKKNQLLFESISEL",binds
2,"OsMADS5 aa 113-225 (other, prey, AD fusion; also called PN20770; O. sativa MADS box protein MADS5) LLGEDLVPLSLKELEQLENQIEISLMNIRSSKNQQLLDQVFELKRKEQQLQDANKDLKRKIQETSGENMLHISCQDVGPSGHASEANQEFLHHAICDPSLHIGYQAYMDHLNQ",binds
3,"OsMADS13 aa 75-263 (other, prey, AD fusion; also called PN20668; O. sativa MADS box protein MADS13) ACGSTSGAPLIEVNAQQYYQQESAKLRHQIQMLQNTNKHLVGDNVSNLSLKELKQLESRLEKGIAKIRARKNELLASEINYMAKREIELQNDNMDLRTKIAEEEQQLQQVTVARSAAMELQAAAAAQQQQQNPFAVAAAQLDMKCFFPLNLFEAAAQVQAVAAQRQQIIPTELNLGYHHHLAIPGATAA",binds
4,"OsMADS18 aa 57-224 (other, prey, AD fusion; also called PN20912; O. sativa MADS box protein MADS18) FSSHSSMEGILERYQRYSFDERAVLEPNTEDQENWGDEYGILKSKLDALQKSQRQLLGEQLDTLTTKELQQLEHQLEYSLKHIRSKKNQLLFESISELQKKEKSLKNQNNVLQKLMETEKEKNNAIINTNREEQNGATPSTSSPTPVTAPDPIPTTNNSQSQPRGSGE",binds

# Next, values leading:
row,binding result,Binder
1,binds,"OsMADS3 aa 48-177 (other, prey, AD fusion; also called PN20700; O. sativa MADS box protein MADS3) FSSRGRLYEYANNSVKSTVERYKKANSDTSNSGTVAEVNAQHYQQESSKLRQQISSLQNANSRTIVGDSINTMSLRDLKQVENRLEKGIAKIRARKNELLYAEVEYMQKREVELQNDNMYLRSKVVENER"
2,binds,"OsMADS15 aa 92-237 (other, prey, AD fusion; also called PN20842; O. sativa MADS box protein MADS15) CHEYRKLKAKIETIQKCHKHLMGEDHESLNLKELQQLEQQLESSLKHIISRKSHLMLESISELQKKERSLQEENKALQKELVERQKNVRGQQQVGQWDQTQVQAQAQAQPQAQTSSSSSSMLRDQQALLPPQNICYPPVMMGERND"

# Target: T2, OsHOS59 aa 1-100
# Assay: Y2H; output trait library
# Procedure, shortened: as §1
row,Binder,binding result
1,"OsPN23388 aa 229-331 (other, prey, AD fusion; also called Novel Protein PN23388) LKTAKEKGLQRLVHLSSDLARQVATILENAQTFQENRKIGDVPSVNSNSSGVPSTQGEIDEIHQERQKFVEVAKKNVRDRRARRMQSCEVPIHPITPVKLMES",binds
2,"OsBAB07943 aa 525-767 (other, prey, AD fusion; also called PN23832; O. sativa Putative Eukaryotic Translation Initiation Factor 3 Large Subunit) LADSLNKARSLIHPPVKKPSKLGENLTSLAAVVENEHKRLLARKSIIEKRKEDLERQILEKEKEEEKKRLSVLKKSAEDERIRLLNDVKLREQERIRRQLVEKEKIEAEELLQKQIKEIAKRGGKKPVLQGEVTKEAVMELAMNEQFKERQEMEKKLQKTGKQMDYLERAKRQEEAPLIEQAFQKRLEVEKILHEQEQLREIELSKQHHAGDLQEKNRLSRMLEHKNIFQERIVQRREAEFSR",binds

# Further lines, results first:
row,binding result,Binder
1,binds,"OsAAK00972 aa 236-350 (other, prey, AD fusion; also called PN23253; O. sativa Putative Homeodomain Protein OsAAK00972) AEGGSKGEGVSSNPQESTANAAPEISAAEKQELQNKMAKLMAMLDEVDRKYKHYYHQMQIVVSSFDMVAGSGAAKPYTAVALQTISKHFRCLKDAINDQINVIRKKLGEEESSSG"
2,binds,"OsPN23829 aa 2-226 (other, prey, AD fusion; also called Novel Protein PN23829 Putative S-Adenosyl-L-Homocysteine Hydrolase) ALSVEKTSSGREYKVKDLSQADFGRLEIELAEVEMPGLMACRAEFGPSQPFKGARISGSLHMTIQTAVLIETLTALGAEVRWCSCNIFSTQDHAAAAIARDSAAVFAWKGETLEEYWWCTERCLDWGVGGGPDLIVDDGGDATLLIHEGVKAEEEFEKSGKVPDPESTDNAEFKIVLTIIRDGLKSDPSKYRKMKERLVGVSEETTTGVKRLYQMQETGALLFPA"
3,binds,"OsAAG13633 aa 799-951 (other, prey, AD fusion; also called PN25701; O. sativa Putative Myosin) IRSLKFEYDNLKILMSTNDSEKHNLASQVLKLRRALESREDVKQNGVKSDEDNHHATSKRIKHDDGTTGSCNVLPSTNRHNANGDCNGHDRRDAAHDQSVKELEILKERNTALEEELKELHGRYSEISLKFAEVEGERQQLVMTVRALKNSLR"

# — patent US20060253917A1 (published 2006)
